Measurements from patent US20200264197A1 (FRAUNHOFER GESELLSCHAFT ZUR F RDERUNG DER ANGEWANDTEN …, published 2020).
One block for each binder: values may come before it. Numbered stars: 1 amine (or outer) side, 2 acyl side, 3 side chain; on linkers, the order of the positions; unused ones are H or OH. Square brackets hold non-standard residues; d marks the D form. Ends that are not written are not given here. βAsp = O=C(O)[C@H](CC(=O)[*:2])N[*:1]; pGlu = O=C1CC[C@@H](C(=O)O)N1

Key:
Aβ(1-18) [1] = target: T1, Aβ(1-18) (human); test: SPR, antibody captured on goat anti-mouse IgG, peptide as analyte; SPR; very weak, KD 931,000 nM
T1 construct: also called wildtype peptide Aβ(1-18)
T1 peptide: DAEFRHDSGYEVHHQKLV
Excerpt: (§1) In order to bind analyzing antibodies K11 and K119 to a CMS sensor Chip (GE Healthcare, Product code BR100012), approximately 15,000-20,000 RU of goat anti mouse IgG (Thermo Fisher Scientific, PA1 28555) were immobilized first. To immobilize the anti-mouse IgG, the carboxymethylated dextran surface of the sensor chip was activated by mixing 0.1 M N-hydroxysuccinimide (NHS) with 0.4 M N-ethyl-N′-(dimethylaminopropyl)carbodiimide hydrochloride (EDC) 1:1. EDC/NHS was applied to the sensor chip for 10 minutes with a flow rate of 10 μl/min. Goat anti mouse IgG was diluted to 50 μg/ml in 10 mM Sodium acetate, pH 5.5 and injected for 2×3 minutes with a flow rate of 10 μl/min. After deactivation with 1 M ethanolamine, pH 8.5 for 2×7 minutes with a flow rate of 10 μl/min, 0.1 M glycine, pH 1.7 was applied to the sensor chip with a flow rate of 30 μl/min for 3 minutes, followed by a washing step with HBS-EP buffer (GE Healthcare, Product code BR100188).
Binding of about 2,000 RU anti isoAsp7-Aβ antibodies occurred with a flow rate of 10 μl/min. […]
(§2) Kinetic constants were determined by applying Aβ peptides at different concentrations and calculated from the combined set of data by using BIAevaluation software (Biacore AB) (FIG. 2A and FIG. 3).

pE3-isoD7-Aβ(3-18) = target: T2, pE3-isoD7-Aβ(3-18); test: SPR, antibody captured on goat anti-mouse IgG, peptide as analyte
T2 peptide: [pGlu]FRH[βAsp]SGYEVHHQKLV
Excerpt: as §1
(§3) Binding of about 2,000 RU anti isoAsp7-Aβ antibodies occurred with a flow rate of 10 μl/min. To achieve this, antibodies were diluted to 25 μg/ml in HBS-EP buffer and applied to the sensor chip, followed by washing with HBS-EP until the RU signal remains constant.
as §2

pE3-Aβ(3-18) = target: T3, pE3-Aβ(3-18); test: as above
T3 peptide: [pGlu]FRHDSGYEVHHQKLV
Excerpt: as §1, §3, §2

Aβ(1-40) = target: T4, Aβ(1-40); test: as above
T4 construct: Synthetic peptide; also called wildtype Aβ(1-40)
Excerpt: as §1, §3, §2

Mouse isoD7-Aβ(1-18) = target: T5, Mouse isoD7-Aβ(1-18) (mouse); test: as above
T5 peptide: DAEFGH[βAsp]SGFEVRHQKLV
Excerpt: as §1, §3, §2

isoD7-Aβ(1-40) = target: T6, isoD7-Aβ(1-40) (isoAsp at position 7); test: as above
T6 construct: Synthetic peptide
Excerpt: as §1, §3, §2

isod7-Aβ(1-17) = target: T7, isod7-Aβ(1-17) (human, D-isoaspartate at position 7); test: SPR, antibody captured on goat anti-mouse IgG, peptide as analyte; SPR
T7 construct: also called D-isoaspartate isomer containing peptide derivative
T7 peptide: DAEFRHXSGYEVHHQKL
Protocol: (§4) FIG. 2: Determination of binding constants of immobilized K11 with different Aβ-peptides by SPR analysis. 1,500-2,000 RU of antibody K11 were immobilized on a CMS chip by binding to goat anti mouse IgG. Monomeric Aβ peptides were injected in varying concentrations. KD values were calculated by using single-cycle kinetic analysis of BIAevaluation software. A—isoD7-Aβ(1-18) was applied at 1 nM, 3 nM, 9 nM, 27 nM, 81 nM and 243 nM. B—isod7-Aβ(1-17) was applied at 1 nM, 3 nM, 9 nM, 27 nM, 81 nM and 243 nM. C—Aβ(1-18) was applied at […], 30 nM, 90 nM, 270 nM, 810 nM and 2430 nM.
as §1, with “After deactivation with 1 M ethanolamine, pH 8.5 for 2×7 minutes with a flow rate of 10 μl/min, 0.1 M glycine, pH 1.7 was applied to the sensor chip with a flow rate of 30 μl/min for 3 minutes, followed by a washing step with HBS-EP buffer (GE Healthcare, Product code BR100188).” left out

Aβ(1-18) [2] = target: T1, Aβ(1-18); test: as above
Protocol: as §4
as §1, with “After deactivation with 1 M ethanolamine, pH 8.5 for 2×7 minutes with a flow rate of 10 μl/min, 0.1 M glycine, pH 1.7 was applied to the sensor chip with a flow rate of 30 μl/min for 3 minutes, followed by a washing step with HBS-EP buffer (GE Healthcare, Product code BR100188).” left out

Aβ(1-30) = target: T8, Aβ(1-30); test: sandwich ELISA: K11 immobilised at 2 µg/ml as capture, peptide serially diluted, HRP-conjugated 4G8 as detection, absorbance 450/540 nm
T8 construct: also called non-modified Aβ peptide
Protocol: FIG. 8: Sandwich ELISA for quantification of isoAsp7-Aβ and total Aβ concentrations in biological samples. Capture antibodies K11 (A) and 3D6 (B) were diluted to 2 μg/ml and immobilized on microtiter plates overnight at 4° C. Blocking occurred for 2 hours at room temperature. isoD7-Aβ(1-30) (SEQ ID NO: 51) and Aβ(1-30) (SEQ ID NO: 52) were serially diluted and added to the wells in duplicate. After an incubation period of 2 hours at 4° C., plates were washed six times with TBS-T. HRP-conjugated anti Aβ antibody clone 4G8 was added in a final concentration of 1 μg/ml and incubated for 1 hour at 4° C. After washing with TBS-T, a color reaction with TMB was performed and stopped by the addition of 1.2 N H₂SO₄. The standard curve was calculated from measured absorption at 450/540 nm by a 4-Parameter-Logistic-Fit: y=(A2+(A1−A2)/(1+(x/x₀)\hat{ }p).
In order to determine the amounts of isoD7-Aβ in biological samples, an indirect Sandwich ELISA was established. Therefore, K11 was diluted in PBS to 2μg/ml and immobilized on polystyrene 96-well microtiter plates overnight at 4° C. Blocking occurred for 2 hours at 4° C. with ELISA Blocker (Thermo Fisher Scientific). […] Absorption at 450/540 nm was determined by a Tecan Sunrise plate reader. The standard curve was calculated from measured absorption by a 4-Parameter-Logistic-Fit: y=(A2+(A1−A2)/(1+(x/x0)\hat{ }p).

T4 sequence (peptide, as listed by the source): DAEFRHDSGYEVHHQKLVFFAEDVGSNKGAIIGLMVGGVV
T8 sequence (peptide, as listed by the source): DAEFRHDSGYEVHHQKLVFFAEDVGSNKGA
T6 sequence (peptide, as listed by the source): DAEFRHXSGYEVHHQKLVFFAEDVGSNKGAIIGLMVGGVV

Kd (Aβ(1-18) [1]): 931000 nM
B1: monoclonal antibody K119 (antibody, mouse IgG2a, kappa, V domains shown)
VH: EVKLVESGGGLVQPGGSLRLSCATSGFTFTDYYMSWVRQPPGKALEWLGFIRNKANGYTTEYSASVKGRFTISRDNSQSILYLQMNTLRTEDSATYYCTRDIPTIMDYWGQGTSVTVSS
VL: DIVMSQSPSSLAVSAGEKATMSCKSSQSLFNSRTRKNYVAWLQQKPGQSPKLLISWASTRESGVPDRFTGSGSGTDFALTITNVQAEDLAVYYCKQSYNLRAFGGGTKLEITR
notes: Mouse monoclonal antibody from a hybridoma

Kd (pE3-isoD7-Aβ(3-18)): 1.7 nM
Kd (pE3-Aβ(3-18)): 402 nM
Kd (Aβ(1-40)): 1670 nM
Kd (Mouse isoD7-Aβ(1-18)): 153 nM
Kd (isoD7-Aβ(1-40)): 3.5 nM
Kd (isod7-Aβ(1-17)): 2690 nM
Kd (Aβ(1-18) [2]): 2700 nM
binding result (Aβ(1-30)): no binding (tested: 140 pg/ml)
B2: monoclonal antibody K11 (antibody, mouse IgG1, kappa, V domains shown)
VH: QVQLKESGPGLVAPSQSLSITCTVSGFSLTSYGVHWVRQPPGKGLEWLGALWASGNTDYSSTLMSRLSISKDNSKSQVFLKMNSLQTDDTAMYYCARDRGILTGGYFDVWGAGTTVTVSS
VL: DIVMSQSPTSLAVSAGEKVTMSCKSSQSLLNSRNRKNYLAWYQQKPGQSPKLLIYWASTRDSGVPDRFTGSGSGTDFTLTISSVQAEDLAVYYCKQSYNLRTFGGGTKLEIKR
notes: Mouse monoclonal antibody from a hybridoma; also called clone K11; anti isoAsp7-Aβ antibody K11
